The values below come from article PMC4070425.

Assay [1] deals with JR-CSF Env wild type (pseudovirus) (HIV-1 isolate JR-CSF) (UniProt P20871).
Assay [2] addresses JR-FL Env N611A (variant pseudovirus) (HIV-1 isolate JR-FL).
Assay [3] has as its target LAI Env N611D (variant virus) (HIV-1 strain LAI).
Assay [4] deals with LAI Env E647G (variant virus) (HIV-1 strain LAI).
The target of assay [5] is JR-FL Env E647A (variant pseudovirus) (HIV-1 isolate JR-FL).
Assay [6] has as its target LAI Env wild type (virus) (HIV-1 strain LAI) (UniProt P03377).
The target of assay [7] is JR-FL Env N611D (variant pseudovirus) (HIV-1 isolate JR-FL).
Assay [8] concerns the target JR-CSF Env N637A (variant pseudovirus) (HIV-1 isolate JR-CSF).
The target in assay [9] is JR-FL Env N637A (variant pseudovirus) (HIV-1 isolate JR-FL).
The target in assay [10] is LAI Env N637K (variant virus) (HIV-1 strain LAI).
The target in assay [11] is LAI Env A501T (variant virus) (HIV-1 strain LAI).
Assay [12] has as its target JR-CSF Env N611A (variant pseudovirus) (HIV-1 isolate JR-CSF).
In assay [13] the target is JR-CSF Env N611D (variant pseudovirus) (HIV-1 isolate JR-CSF).
The target of assay [14] is JR-FL Env N637K (variant pseudovirus) (HIV-1 isolate JR-FL).
The target of assay [15] is JR-CSF Env N637K (variant pseudovirus) (HIV-1 isolate JR-CSF).
The target of assay [16] is JR-CSF Env S613A (variant pseudovirus) (HIV-1 isolate JR-CSF).
The target of assay [17] is JR-FL Env E647G (variant pseudovirus) (HIV-1 isolate JR-FL).
In assay [18] the target is LAI Env N611A (variant virus) (HIV-1 strain LAI).
The target in assay [19] is JR-CSF Env E647G (variant pseudovirus) (HIV-1 isolate JR-CSF).
Assay [20] addresses LAI Env E647A (variant virus) (HIV-1 strain LAI).
In assay [21] the target is JR-CSF Env T639A (variant pseudovirus) (HIV-1 isolate JR-CSF).
Assay [22] deals with LAI Env N637A (variant virus) (HIV-1 strain LAI).
The target in assay [23] is JR-CSF Env E647A (variant pseudovirus) (HIV-1 isolate JR-CSF).

Chain of UniProt P20871 (P20871 32-848): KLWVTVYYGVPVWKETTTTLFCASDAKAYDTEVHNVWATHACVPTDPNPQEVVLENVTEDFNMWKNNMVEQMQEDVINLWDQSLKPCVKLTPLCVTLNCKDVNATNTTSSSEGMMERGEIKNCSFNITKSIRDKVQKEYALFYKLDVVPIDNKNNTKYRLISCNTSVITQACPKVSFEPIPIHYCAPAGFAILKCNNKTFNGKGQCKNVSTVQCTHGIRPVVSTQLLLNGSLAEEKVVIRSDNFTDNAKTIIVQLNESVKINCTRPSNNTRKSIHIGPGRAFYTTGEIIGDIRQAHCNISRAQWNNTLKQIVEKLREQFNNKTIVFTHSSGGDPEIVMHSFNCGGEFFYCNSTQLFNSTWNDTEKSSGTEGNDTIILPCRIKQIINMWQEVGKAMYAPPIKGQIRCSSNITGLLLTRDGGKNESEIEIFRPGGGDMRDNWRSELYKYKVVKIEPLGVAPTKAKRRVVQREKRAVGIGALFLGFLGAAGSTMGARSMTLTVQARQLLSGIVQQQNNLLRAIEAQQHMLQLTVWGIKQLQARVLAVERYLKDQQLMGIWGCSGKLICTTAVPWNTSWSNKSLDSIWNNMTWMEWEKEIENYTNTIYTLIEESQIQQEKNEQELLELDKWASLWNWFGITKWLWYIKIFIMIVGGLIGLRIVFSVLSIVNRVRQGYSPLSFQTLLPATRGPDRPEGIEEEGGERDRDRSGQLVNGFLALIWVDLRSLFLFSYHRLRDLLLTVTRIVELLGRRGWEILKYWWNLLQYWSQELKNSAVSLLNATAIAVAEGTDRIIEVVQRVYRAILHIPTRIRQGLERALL

For PGT151 (antibody), the %Maximum neutralization (JR-CSF) came out at 93% in assay [1]; 50% in [8]; 44% in [12]; 0% in assay [13]; 20% in assay [15]; 41% in [16]. The %Maximum neutralization (JR-CSF) in [19] was 7%; in assay [21] it was 52%; in assay [23], 33%. For the same substance, the %Maximum neutralization (JR-FL) in assay [2] is 31%; in [5], 72%; in assay [7], 8%; in assay [9], 65%; in assay [14], 33%; in assay [17] it was 94%. For the same substance, the %Maximum neutralization (LAI) in assay [3] was 45%; in assay [4] it was 95%; in [6] it was 100%; in assay [10], 37%; in [11], 75%; in assay [18], 81%. Also, the %Maximum neutralization (LAI) was 96% in assay [20] and 70% in assay [22].
